Biological target: truncated HsDNPH1 (Homo sapiens 2′-deoxynucleoside 5′-phosphate N-hydrolase 1) (human) (UniProt O43598)
Assay: crystal structure; HsDNPH1^Trunc at 8 mg/mL in 30 mM Tris-HCl pH 7.5, 150 mM NaCl, hanging drop, 20 °C, reservoir pH 4.0 with 20% PEG 1500; unliganded crystals and crystals soaked with 50 mM dUMP

- stoichiometry N: 2
Substance: truncated HsDNPH1 (Homo sapiens 2′-deoxynucleoside 5′-phosphate N-hydrolase 1) (from UniProt O43598 20-162) (enzyme)

Source: paper PMC10483697
